Results taken from the supplement of paper PMC9112550, “Optimization of the antimicrobial peptide Bac7 by deep mutational scanning” (BMC Biology, 2022).

System: Escherichia coli TOP10
Assay: shrunken log2 fold change of peptide-encoding DNA abundance (4.5 h post-induction vs induction); higher = less antimicrobial activity (less host growth inhibition)
Settings: time post-induction: 4.5 h; library: site-saturation at positions 5, 18, 19, 20
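Further: peptides expressed intracellularly from a pBAD plasmid library in pooled LB shake-flask culture, induced with 0.3% L-arabinose, DNA abundance read by NGS, three biological replicates, DESeq2 with apeglm shrinkage.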

Sequence: RRIRQRPPRLPRPRPRPRCIPRP
- shrunken log2 fold change: -0.188

Sequence: RRIRERPPRLPRPRPRPFGKPRP
- shrunken log2 fold change: -0.01

Sequence: RRIRTRPPRLPRPRPRPYMQPRP
- shrunken log2 fold change: -0.298

Sequence: RRIRGRPPRLPRPRPRPTGLPRP
- shrunken log2 fold change: 0.885

Sequence: RRIRSRPPRLPRPRPRPPASPRP
- shrunken log2 fold change: 0.694

Sequence: RRIRCRPPRLPRPRPRPTNVPRP
- shrunken log2 fold change: -0.154

Sequence: RRIRIRPPRLPRPRPRPDNLPRP
- shrunken log2 fold change: -0.00843

Sequence: RRIRLRPPRLPRPRPRPVNCPRP
- shrunken log2 fold change: -0.0144

Sequence: RRIRTRPPRLPRPRPRPMRCPRP
- shrunken log2 fold change: -0.117

Sequence: RRIRMRPPRLPRPRPRPEKLPRP
- shrunken log2 fold change: 0.462

Sequence: RRIRPRPPRLPRPRPRPKGVPRP
- shrunken log2 fold change: 0.000119

Sequence: RRIRQRPPRLPRPRPRPSRRPRP
- shrunken log2 fold change: 0.0103

Sequence: RRIRIRPPRLPRPRPRPKKIPRP
- shrunken log2 fold change: -0.526

Sequence: RRIRMRPPRLPRPRPRPDNWPRP
- shrunken log2 fold change: 0.402

Sequence: RRIRVRPPRLPRPRPRPPEFPRP
- shrunken log2 fold change: 0.265

Sequence: RRIRERPPRLPRPRPRPSSNPRP
- shrunken log2 fold change: -0.0512

Sequence: RRIRVRPPRLPRPRPRPSRYPRP
- shrunken log2 fold change: -0.0975

Sequence: RRIRCRPPRLPRPRPRPSVQPRP
- shrunken log2 fold change: -0.579

Sequence: RRIRVRPPRLPRPRPRPYPAPRP
- shrunken log2 fold change: -0.715

Sequence: RRIRHRPPRLPRPRPRPTHYPRP
- shrunken log2 fold change: -0.26

Sequence: RRIRGRPPRLPRPRPRPEGNPRP
- shrunken log2 fold change: 0.0816

Sequence: RRIRFRPPRLPRPRPRPQVDPRP
- shrunken log2 fold change: -0.412

Sequence: RRIRYRPPRLPRPRPRPCIPPRP
- shrunken log2 fold change: -0.11

Sequence: RRIRSRPPRLPRPRPRPAYMPRP
- shrunken log2 fold change: -0.608

Sequence: RRIRRRPPRLPRPRPRPTCIPRP
- shrunken log2 fold change: -0.123

Sequence: RRIRERPPRLPRPRPRPDGDPRP
- shrunken log2 fold change: 0.03

Sequence: RRIRTRPPRLPRPRPRPRSRPRP
- shrunken log2 fold change: 0.143

Sequence: RRIRKRPPRLPRPRPRPECLPRP
- shrunken log2 fold change: 0.182

Sequence: RRIRTRPPRLPRPRPRPGVPPRP
- shrunken log2 fold change: 0.202

Sequence: RRIRGRPPRLPRPRPRPFAIPRP
- shrunken log2 fold change: -0.0466

Sequence: RRIRQRPPRLPRPRPRPNVSPRP
- shrunken log2 fold change: 0.00422

Sequence: RRIRRRPPRLPRPRPRPQPEPRP
- shrunken log2 fold change: 0.0541

Sequence: RRIRDRPPRLPRPRPRPKCKPRP
- shrunken log2 fold change: -0.0015

Sequence: RRIRTRPPRLPRPRPRPGKYPRP
- shrunken log2 fold change: -0.755

Sequence: RRIRYRPPRLPRPRPRPLEEPRP
- shrunken log2 fold change: -0.0801

Sequence: RRIRDRPPRLPRPRPRPYAAPRP
- shrunken log2 fold change: -0.2

Sequence: RRIRLRPPRLPRPRPRPAHDPRP
- shrunken log2 fold change: 0.189

Sequence: RRIRRRPPRLPRPRPRPKHLPRP
- shrunken log2 fold change: 0.0709

Sequence: RRIRWRPPRLPRPRPRPGSHPRP
- shrunken log2 fold change: 0.0507

Sequence: RRIRSRPPRLPRPRPRPLRTPRP
- shrunken log2 fold change: 0.787

Sequence: RRIRSRPPRLPRPRPRPQPTPRP
- shrunken log2 fold change: 0.447

Sequence: RRIRARPPRLPRPRPRPTIEPRP
- shrunken log2 fold change: 0.225

Sequence: RRIRLRPPRLPRPRPRPIIRPRP
- shrunken log2 fold change: -0.19

Sequence: RRIRKRPPRLPRPRPRPDEGPRP
- shrunken log2 fold change: -0.01

Sequence: RRIRVRPPRLPRPRPRPESYPRP
- shrunken log2 fold change: 0.45

Sequence: RRIRFRPPRLPRPRPRPGPNPRP
- shrunken log2 fold change: -0.0666

Sequence: RRIRARPPRLPRPRPRPSYTPRP
- shrunken log2 fold change: 1.56

Sequence: RRIRQRPPRLPRPRPRPWHAPRP
- shrunken log2 fold change: -0.106

Sequence: RRIRRRPPRLPRPRPRPIHEPRP
- shrunken log2 fold change: 0.086

Sequence: RRIRVRPPRLPRPRPRPVPTPRP
- shrunken log2 fold change: 0.149

Sequence: RRIRLRPPRLPRPRPRPQTHPRP
- shrunken log2 fold change: 0.0338

Sequence: RRIRARPPRLPRPRPRPVVHPRP
- shrunken log2 fold change: 0.297

Sequence: RRIRPRPPRLPRPRPRPNEGPRP
- shrunken log2 fold change: 0.0293

Sequence: RRIRDRPPRLPRPRPRPTLRPRP
- shrunken log2 fold change: 0.129

Sequence: RRIRVRPPRLPRPRPRPLLFPRP
- shrunken log2 fold change: -0.141

Sequence: RRIRDRPPRLPRPRPRPCVHPRP
- shrunken log2 fold change: 0.412

Sequence: RRIRKRPPRLPRPRPRPQMFPRP
- shrunken log2 fold change: -0.00577

Sequence: RRIRGRPPRLPRPRPRPAYPPRP
- shrunken log2 fold change: -0.0884

Sequence: RRIRQRPPRLPRPRPRPGKQPRP
- shrunken log2 fold change: -0.117

Sequence: RRIRVRPPRLPRPRPRPDDQPRP
- shrunken log2 fold change: -0.00455
